Drawing on patent US20100021456A1, this text covers reduction in secreted IL-6 induced by IL-17A in the presence of TNF-α, after simultaneous IL-17RA and IL-17RC iRNAs for 1 substance.

Assay [1] concerns the target IL-17RA receptor (IL-17 receptor A) on RA synoviocytes (human) (UniProt Q96F46). Put plainly: cell-based or functional assay.
Assay [2] concerns the target IL-17RC receptor (IL-17 receptor C) on RA synoviocytes (human) (UniProt Q8NAC3). Put plainly: cell-based or functional assay.
Chain of UniProt Q8NAC3 (Q8NAC3 21-791): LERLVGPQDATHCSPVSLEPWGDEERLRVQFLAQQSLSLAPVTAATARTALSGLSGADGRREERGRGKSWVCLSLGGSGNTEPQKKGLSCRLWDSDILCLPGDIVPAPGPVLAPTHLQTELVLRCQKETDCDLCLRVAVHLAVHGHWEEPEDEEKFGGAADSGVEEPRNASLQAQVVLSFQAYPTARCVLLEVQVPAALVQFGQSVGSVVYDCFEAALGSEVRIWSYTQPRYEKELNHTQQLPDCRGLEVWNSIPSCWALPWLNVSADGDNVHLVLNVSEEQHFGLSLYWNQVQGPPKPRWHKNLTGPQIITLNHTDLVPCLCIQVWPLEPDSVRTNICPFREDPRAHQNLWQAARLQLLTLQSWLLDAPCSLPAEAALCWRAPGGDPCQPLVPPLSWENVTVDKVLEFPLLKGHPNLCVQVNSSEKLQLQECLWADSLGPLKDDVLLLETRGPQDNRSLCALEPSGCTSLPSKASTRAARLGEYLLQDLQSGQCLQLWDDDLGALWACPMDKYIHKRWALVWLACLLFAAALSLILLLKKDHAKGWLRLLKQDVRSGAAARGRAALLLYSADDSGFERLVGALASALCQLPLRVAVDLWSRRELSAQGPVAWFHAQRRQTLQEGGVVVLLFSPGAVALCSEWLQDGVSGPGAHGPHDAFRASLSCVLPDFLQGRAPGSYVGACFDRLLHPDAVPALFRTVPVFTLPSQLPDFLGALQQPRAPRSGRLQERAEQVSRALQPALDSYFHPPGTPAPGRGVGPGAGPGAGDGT

Turning to “recombinant human IL-17A (R&D Systems) (from UniProt Q16552 24-155) (ligand)”, the reduction in secreted IL-6 induced by IL-17A in the presence of TNF-α, after simultaneous IL-17RA and IL-17RC iRNAs in assay [1] and in assay [2] was 20% each time.
